Assay: soluble fraction after stress (log2 fold change); higher = more stays soluble; pooled small domains, quantitative proteomics
Conditions: stress: 75 degC
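Further: 20 min heating vs room temperature control held 20 min.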

Sequence	soluble fraction (log2)
HMESPVNTLPEDQRAWYKALPPELSTKTAVEAGAGVGVSERTVKRLLSNQTFFINLQRGNYRKRH	-0.119
HMESRMTYLQKTKLATENLDAKLIDHQQWVAEVLGEDYRGVYSDEYLRRAAKVFAIFVNNLDD	-2.53
HMESRRVTLLLPYDKAGIADTLRREAAVLSLEYGEDGVTVEAVVKPELWGLVREYVQNDNPK	-0.135
HMESVTETFLTNLINRYIADKAGYIISYPSEYRIEVLYHGGQVLDYENLRKSINTYIPAHIGYKLVTI	0.176
HMESYDSEIKEVLDLAGKGRWEEAQTKADALREMAPNNSLVERLHGWVLQAAHQRREQALENDIRE	0.432
HMESYTEEMLEKMSVSKLRTIARELQVDNMTREQIRFGKKTELIQNILEFTGREIENMQLYDK	-0.0481
HMESYWVVLRPMAAGTQIGANDLGYRSVALGAAAKNYLAASTNPIGSITRRRLVAGELLQGSSLTDDARA	-0.653
HMETADREILLREIREIINERVDYNKDITDDEMKELVMNTVFERSRQQYMSIQDKQEIIQAIFNSMR	0.029
HMETAESLLRRLIMLEDPAMQNAMYVLAVMLERGKQLVERAAKPHESGGILRVYEHKKSGDTFVVLDPR	-0.764
HMETDGGDLTPRERDVLSLIGRGLRNAEAASALGLSEHTIAGHIKSVYSKLGISTRAEAALLASRLGL	-0.499
HMETGGLAQEAERELALLQEQIAHHEALYRKGTPEISDGAFDELFDRYQELADSLGVPADERIDRA	0.155
HMETIHEMVNRLSSEGFIKNEDGIWYLRDRRGDGTKWLKNPFFESTGEKDAFALIDHLKVNDELLSKLRK	-0.621
HMETINERVNSIIEREGHTVATFAKKIGVPWTTIKNIVSGRNAPSYDIMVKIINAVDWVDANYLVMG	-2.59
HMETKIKFQIQTLDELNIRKVADWDAKAITTVKKGQILDVVDTVAAKNGSTPMYRLESGLYITASPKYVKK	-1.16
HMETKPTELMLDVHKLRIGMFVYLDLGWMDHPFPLNRFKISTNAQIEQIKGLRLKQVKVMTALSDPASLL	-4.91
HMETKVIVPKVTGMNSKSAINYLSARGLKYKAVPADSGKSFHVVDQYPKSGTKVSPHSTVYLYS	0.114
HMETLKEVPNLKGQQQEVAKQLLINAGLGVGKINIIEDSTIADGEVVTQSILPNTKVKKDTYVGFTVNKAP	0.0288
HMETLKLRDSGKEVQSLQELLQRQGLSAPMNGIFDEATKSSVIAFQKANGLDADGIVGYKSWETLFTAG	0.0141
HMETMSGTVKWFNTQKGYGFITGDDGAEYFAHQTQIKMDGFRTLDAGDIVEFDVRSEEKGLAAVNIVP	0.781
HMETPDLTQLNPILDEYRGQKGAVIPVLQKAQKIYGFLPPEVLRRIAAGMRVPLSKIYGVATFYSQFY	0.134
HMETQAGELQDAIRDAIAALPPRTREVFLMSRERNLRYGEIAEALGISVKAVEANMSRALRQLREKLSPFL	-1.26
HMETVMYLRQIKRPQGIYLAIQESYYDSSKKQSRTRTIESIGYLDNLRKEYEDPIAFFSQKAAAMTSEKKK	-1.55
HMETVQTGTVKVSNSLNVRSGAGTNYSVLGSLSNGAKVEIVGTSGSWYKIKYGSGYGYVSKDYVTVS	-0.0122
HMETVSFNPDIAVIPDYRHVVILGETTKTIANKYDIPVDILKAANPGLGNNVTKGDRLRVPDKTKLQ	0.00398
HMETYHIQMKGDPSKGIVGFSQLDMVIDKIKRLETEKGIAPYELEVLDGDTMEKYSGEEFLTMHE	-0.0165
HMETYSGVERAAILVMYLERTLAKALLDHMNDEEVRRVGMAMASIDRVEGPDIERIVGDFVRELYEVS	-0.642
HMETYTVPEVLGLTPEQAAQLPEVKDIFTLDVKEEGDFSDKPVGTIVRQSPTEGEHRKGDNLVIEVWLSV	0.166
HMEVADAAQRKILQALQVQPLTVEQLSQELRTDTGDLLVSLSMMEITGLIRREAGNTFLAVFAPK	-1.66
